Assay results as given in the Human Domainome abundance scans (Beltran et al. 2025).
± gives the uncertainty stated by the source.

B1: RUN and FYVE domain-containing protein 1, residues 639 to 698; numbered along this chain, Q96T51 (parent)
chain: WLKDDEATHCRQCEKEFSISRRKHHCRNCGHIFCNTCSSNELALPSYPKPVRVCDSCHTL
B2: POU domain, class 3, transcription factor 2, residues 262 to 338; numbered along this chain, P20265 (parent)
chain: EDTPTSDDLEQFAKQFKQRRIKLGFTQADVGLALGTLYGNVFSQTTICRFEALQLSFKNMCKLKPLLNKWLEEADSS

Variants of: B1
Test: abundance fitness (aPCA) (normalised: wild type 0, dead -1); higher = more abundant; growth selection in yeast, the domain comes from the species named
Details: Homo sapiens

| Variant | abundance fitness |
| --- | --- |
| C13Q | -0.806 ± 0.086 |
| E6N | -0.121 ± 0.064 |
| H24V | -0.166 ± 0.046 |
| N40S | -0.004 ± 0.035 |
| C13V | -0.951 ± 0.059 |
| S38H | -0.545 ± 0.066 |
| A43N | 0.034 ± 0.051 |
| R22N | -0.24 ± 0.1 |
| T59S | 0.052 ± 0.041 |
| P50Q | -0.219 ± 0.071 |
| Y47N | 0.019 ± 0.073 |
| E16G | -0.18 ± 0.036 |
| H25P | -0.065 ± 0.043 |
| N28I | -0.261 ± 0.065 |
| H58N | -0.242 ± 0.063 |
| H9R | -0.23 ± 0.036 |
| L2R | -0.393 ± 0.07 |
| C26P | -0.508 ± 0.071 |
| R21F | -0.265 ± 0.06 |
| K23H | -0.326 ± 0.077 |
| E16F | -0.245 ± 0.074 |
| F17R | -0.677 ± 0.042 |
| R22D | -0.141 ± 0.08 |
| A7N | -0.204 ± 0.065 |

| Variant | abundance fitness |
| --- | --- |
| N40R | 0.153 ± 0.034 |
| R21N | -0.711 ± 0.2 |
| A7V | -0.108 ± 0.039 |
| K3Q | -0.664 ± 0.095 |
| S18M | -0.23 ± 0.054 |
| S39G | 0.185 ± 0.034 |
| D5Y | -0.258 ± 0.07 |
| S46L | 0.151 ± 0.04 |
| E16H | -0.089 ± 0.1 |
| W1A | -0.014 ± 0.17 |
| K15H | -0.074 ± 0.056 |
| K15G | -0.088 ± 0.041 |
| Q12P | -1.17 ± 0.13 |
| Y47H | 0.09 ± 0.068 |
| P50V | -0.074 ± 0.047 |
| T36Y | 0.177 ± 0.043 |
| K3C | -1.03 ± 0.12 |
| S20A | 0.068 ± 0.035 |
| S56F | 0.271 ± 0.061 |
| R27W | -0.144 ± 0.046 |
| R11N | -0.093 ± 0.12 |
| C13F | -0.707 ± 0.12 |
| T8P | -0.187 ± 0.063 |
| K3V | -0.687 ± 0.06 |

| Variant | abundance fitness |
| --- | --- |
| W1M | 0.253 ± 0.057 |
| R22Q | -0.1 ± 0.048 |
| S38E | -0.954 ± 0.44 |
| N35W | 0.088 ± 0.04 |
| C37F | -0.649 ± 0.13 |
| P50D | -0.295 ± 0.091 |
| A43V | 0.008 ± 0.038 |
| N28G | -0.1 ± 0.044 |
| F33V | 0.076 ± 0.038 |
| T36F | 0.208 ± 0.064 |
| E16R | -0.412 ± 0.043 |
| S20F | -0.009 ± 0.045 |
| C26L | -0.763 ± 0.055 |
| V51F | -0.571 ± 0.075 |
| V51H | -0.945 ± 0.18 |
| D4A | -0.466 ± 0.069 |
| C13S | -0.899 ± 0.081 |
| E14A | -0.08 ± 0.033 |
| P50W | -0.549 ± 0.089 |
| T36G | 0.444 ± 0.032 |
| C34V | -0.496 ± 0.055 |
| R21A | -0.04 ± 0.039 |
| F33W | -0.455 ± 0.058 |
| R22E | 0.014 ± 0.045 |

| Variant | abundance fitness |
| --- | --- |
| Q12A | -0.171 ± 0.044 |
| T8R | -0.009 ± 0.031 |
| Q12I | -0.068 ± 0.11 |
| R21T | 0.13 ± 0.039 |
| C37I | -0.825 ± 0.17 |
| Q12E | -0.225 ± 0.047 |
| C10E | -0.687 ± 0.076 |
| C29L | -0.875 ± 0.08 |
| C26D | -0.794 ± 0.11 |
| L2C | -0.327 ± 0.069 |
| H58C | -0.365 ± 0.054 |
| D5A | -0.21 ± 0.055 |
| Q12M | -0.27 ± 0.055 |
| C26Y | -0.77 ± 0.13 |
| R21Y | -0.801 ± 0.16 |
| E6H | -0.185 ± 0.057 |
| V51R | -0.474 ± 0.058 |
| R11H | 0.044 ± 0.068 |
| P48R | -0.308 ± 0.045 |
| C13N | -0.712 ± 0.12 |
| F17W | -0.381 ± 0.04 |
| S20W | 0.005 ± 0.038 |
| L2A | 0.01 ± 0.077 |
| T8M | 0.022 ± 0.058 |

| Variant | abundance fitness |
| --- | --- |
| K23S | -0.189 ± 0.041 |
| F17H | -0.65 ± 0.12 |
| C13M | -0.943 ± 0.094 |
| D55Y | -0.31 ± 0.32 |
| E6S | -0.165 ± 0.041 |
| H25A | 0.121 ± 0.045 |
| C34R | -0.642 ± 0.049 |
| N40D | -0.382 ± 0.059 |
| P50R | -0.185 ± 0.044 |
| C10F | -0.776 ± 0.1 |
| E14S | -0.168 ± 0.041 |
| D5K | -0.069 ± 0.056 |
| H58S | -0.179 ± 0.044 |
| I19L | -0.038 ± 0.038 |
| H9M | -0.108 ± 0.046 |
| Y47G | -0.045 ± 0.036 |
| P45H | -0.022 ± 0.063 |
| L60P | -0.404 ± 0.085 |
| H58L | -0.114 ± 0.038 |
| D4C | -0.971 ± 0.17 |
| E41G | -0.522 ± 0.064 |
| K23P | -0.494 ± 0.057 |
| V51N | -0.695 ± 0.14 |
| K15I | -0.143 ± 0.062 |

| Variant | abundance fitness |
| --- | --- |
| C34K | -0.493 ± 0.14 |
| C57W | -0.682 ± 0.064 |
| L60K | 0.023 ± 0.047 |
| D5Q | -0.708 ± 0.069 |
| L2K | 0.102 ± 0.071 |
| N40E | -0.172 ± 0.042 |
| T36N | 0.276 ± 0.072 |
| F33P | -0.888 ± 0.091 |
| S18D | 0.06 ± 0.055 |
| E6I | 0.029 ± 0.059 |
| E14P | -0.856 ± 0.12 |
| I19Q | 0.094 ± 0.047 |
| L44A | -0.3 ± 0.071 |
| F17V | -0.662 ± 0.051 |
| E14F | -0.204 ± 0.05 |
| S20V | -0.031 ± 0.033 |
| C57L | -0.475 ± 0.056 |
| C34T | -0.612 ± 0.057 |
| P50E | -0.078 ± 0.081 |
| F17I | -0.397 ± 0.12 |
| S39L | -0.102 ± 0.039 |
| A7D | -0.039 ± 0.068 |
| S20H | -0.108 ± 0.096 |

Variants of: B2
Test: as above
Details: Homo sapiens

| Variant | abundance fitness |
| --- | --- |
| R19W | -0.379 ± 0.043 |
| I21P | -0.805 ± 0.12 |
| A33C | -0.19 ± 0.051 |
| P4S | -0.018 ± 0.039 |
| K17P | -0.658 ± 0.087 |
| L63D | -0.785 ± 0.11 |
| D7L | -0.434 ± 0.31 |
| W70N | -0.358 ± 0.18 |
| Q11K | 0 ± 0.047 |
| Q44H | -0.031 ± 0.069 |
| Q15D | -0.008 ± 0.068 |
| L34M | -0.035 ± 0.04 |
| C61N | -0.107 ± 0.075 |
| Q15E | 0.018 ± 0.038 |
| A13Q | -0.73 ± 0.12 |
| Q44N | -0.133 ± 0.06 |
| D2T | 0.039 ± 0.046 |
| A28P | -0.811 ± 0.12 |
| A13M | -0.259 ± 0.11 |
| L9W | -0.396 ± 0.037 |
| L63Q | -1.03 ± 0.18 |
| E72W | -0.177 ± 0.043 |
| D75T | -0.014 ± 0.042 |
| K58D | -0.088 ± 0.091 |
